Data reported in PMC3526301.

B1: clone 3 (structured_DNA)
DNA: AGCAGCACAGAGGTCAGATGGGTTGGTGTGGTTGGTGAGTCGACTGTGTGCCTCAAGTAGAACGTAGGTGAGTCCGTGGTAGGGCAGGTTGGGGTGACTCCTATGCGTGCTACCGTGAA
B2: clone 7 (structured_DNA)
DNA: AGCAGCACAGAGGTCAGATGGGTTGGTGTGGTTGGCTCTGATAACCCGGGGCTGTGGTGCGCCAGGTAGGAGTCCGTGGTAGGGCAGGTTGGGGTGACTCCTATGCGTGCTACCGTGAA
B3: clone 2 (structured_DNA)
DNA: AGCAGCACAGAGGTCAGATGGGTTGGTGTGGTTGGCTGATACCGGAAGGGGTGTGTGTAGCGCGGTTGAGAGTCCGTGGTAGGGCAGGTTGGGGTGACTCCTATGCGTGCTACCGTGAA
B4: TBV-08 (clone 8) (structured_DNA)
DNA: AGCAGCACAGAGGTCAGATGGGTTGGTGTGGTTGGTGAGACCTTGCATGCGACTTGGTGAGCACGTGAGAAGTCCGTGGTAGGGCAGGTTGGGGTGACTCCTATGCGTGCTACCGTGAA
B5: clone 6 (structured_DNA)
DNA: AGCAGCACAGAGGTCAGATGGGTTGGTGTGGTTGGCGAGGACGCTGTGTGCGCTTCGAGGGCCTAGAAGGAGTCCGTGGTAGGGCAGGTTGGGGTGACTCCTATGCGTGCTACCGTGAA
B6: clone 5 (structured_DNA)
DNA: AGCAGCACAGAGGTCAGATGGGTTGGTGTGGTTGGCATTTTGACCGAATGACGTTAGCAAAATATGTTAGAGTCCGTGGTAGGGCAGGTTGGGGTGACTCCTATGCGTGCTACCGTGAA
B7: clone 4 (structured_DNA)
DNA: AGCAGCACAGAGGTCAGATGGGTTGGTGTGGTTGGCTGGTCTGGGGGCGTTTACTGGGCGCGCATTTTAAAGTCCGTGGTAGGGCAGGTTGGGGTGACTCCTATGCGTGCTACCGTGAA
B8: clone 1 (structured_DNA)
DNA: AGCAGCACAGAGGTCAGATGGGTTGGTGTGGTTGGAGCGGACTTTACCTGTGTCAGCTGCGGGGGCCGCAAGTCCGTGGTAGGGCAGGTTGGGGTGACTCCTATGCGTGCTACCGTGAA
B9: TBV-08 without primer sites (structured_DNA)
DNA: GGTTGGTGTGGTTGGTGAGACCTTGCATGCGACTTGGTGAGCACGTGAGAAGTCCGTGGTAGGGCAGGTTGGGGTGACT
B10: clone 10 (structured_DNA)
DNA: AGCAGCACAGAGGTCAGATGGGTTGGTGTGGTTGGTTTGCCGATGTGTGGACAGCATGTGGGGTAGAGCGAGTCCGTGGTAGGGCAGGTTGGGGTGACTCCTATGCGTGCTACCGTGAA
B11: clone 9 (structured_DNA)
DNA: AGCAGCACAGAGGTCAGATGGGTTGGTGTGGTTGGCATTCGTAACTATGGGGTTCCTGTATTGGTATAGGAGTCCGTGGTAGGGCAGGTTGGGGTGACTCCTATGCGTGCTACCGTGAA

What was measured:
human alpha-thrombin [1] = target: T1, human alpha-thrombin (Homo sapiens, UniProt P00734;P00734 315-363;364-622); test: bead-based fluorescence binding; 50 pM aptamer; 50 mM Tris, 100 mM NaCl, 1 mM MgCl2, 5 mM KCl, 1 mM CaCl2, 0.01% Tween 20, pH 7.5 (selection buffer), 1 h room temperature, wa
human alpha-thrombin [2] = target: T1, human alpha-thrombin; test: bead-based fluorescence binding; apparent Kd; 50 mM Tris, 100 mM NaCl, 1 mM MgCl2, 5 mM KCl, 1 mM CaCl2, 0.01% Tween 20, pH 7.5 (selection buffer), 1 h room temperature, wa
human alpha-thrombin [3] = target: T1, human alpha-thrombin; test: bead-based fluorescence binding; apparent Kd; Figure S7 legend gives 430 pM; 50 mM Tris, 100 mM NaCl, 1 mM MgCl2, 5 mM KCl, 1 mM CaCl2, 0.01% Tween 20, pH 7.5 (selection buffer), 1 h room temperature, wa

Binder | binding result (human alpha-thrombin [1]) | other results
B1 | binds | 
B2 | binds | 
B3 | binds | 
B4 |  | Kd (human alpha-thrombin [2]): 8.1 pM
B5 | binds | 
B6 | binds | 
B7 | binds | 
B8 | binds | 
B9 |  | Kd (human alpha-thrombin [3]): 440 pM
B10 | binds | 
B11 | binds | 
